Measured values as given in US20040138118.

T1: 30-mer R to Q mutant peptide (SEQ ID NO:16)
T1 chain: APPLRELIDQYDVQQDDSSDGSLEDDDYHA

T2: 20-mer R to Q mutant peptide (SEQ ID NO:19)
T2 chain: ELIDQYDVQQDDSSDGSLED

T3: 30-mer wild type myostatin pro peptide peptide (SEQ ID NO:15)
T3 chain: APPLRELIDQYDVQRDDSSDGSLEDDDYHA

T4: 40-mer R to Q mutant peptide (SEQ ID NO:13)
T4 chain: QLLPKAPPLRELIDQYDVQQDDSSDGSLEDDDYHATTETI

T5: 20-mer wild type myostatin pro peptide peptide (SEQ ID NO:18)
T5 chain: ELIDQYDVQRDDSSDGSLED

T6: 30-mer D to A mutant peptide (SEQ ID NO:17)
T6 chain: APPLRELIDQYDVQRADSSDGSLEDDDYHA

T7: 20-mer D to A mutant peptide (SEQ ID NO:20)
T7 chain: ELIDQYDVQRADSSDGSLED

T8: 40-mer D to A mutant peptide (SEQ ID NO:14)
T8 chain: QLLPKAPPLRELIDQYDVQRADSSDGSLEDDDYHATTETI

T9: 40-mer wild type myostatin pro peptide peptide (SEQ ID NO:12)
T9 chain: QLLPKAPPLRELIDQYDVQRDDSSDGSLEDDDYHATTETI


Legend:
[1] = target: D76A mutant myostatin pro peptide
Chain of D76A mutant myostatin pro peptide (chain, as listed by the source D76A): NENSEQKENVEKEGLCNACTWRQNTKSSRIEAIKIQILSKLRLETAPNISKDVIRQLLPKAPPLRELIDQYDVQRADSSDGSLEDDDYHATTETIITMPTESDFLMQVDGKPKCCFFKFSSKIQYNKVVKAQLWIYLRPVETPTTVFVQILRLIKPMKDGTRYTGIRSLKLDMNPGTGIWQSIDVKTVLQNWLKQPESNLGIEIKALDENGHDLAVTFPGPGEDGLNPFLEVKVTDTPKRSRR

[2] = target: myostatin pro peptide (wild type)
[3] = target: T1, 30-mer R to Q mutant peptide (SEQ ID …)
[4] = target: T2, 20-mer R to Q mutant peptide (SEQ ID …)
[5] = target: T3, 30-mer wild type myostatin pro peptide …
[6] = target: T4, 40-mer R to Q mutant peptide (SEQ ID …)
[7] = target: T5, 20-mer wild type myostatin pro peptide …
[8] = target: T6, 30-mer D to A mutant peptide (SEQ ID …)
[9] = target: T7, 20-mer D to A mutant peptide (SEQ ID …)
[10] = target: T8, 40-mer D to A mutant peptide (SEQ ID …)
[11] = target: T9, 40-mer wild type myostatin pro peptide …

Row | Protein | proteolytic cleavage of the mutant pro peptide in the latent complex, western blot (FIGS. 3D and E) [1] | partial proteolytic cleavage of the pro peptide in the latent complex, western blot (FIG. 3E) [2] | proteolytic cleavage of free pro peptide [2] | proteolytic cleavage, SDS-PAGE and western blot with anti-pro peptide antiserum [2] | proteolytic cleavage of the pro peptide in the latent complex, western blot (FIG. 3D) [2] | peptide cleavage, HPLC and mass spectrometry [3] | peptide cleavage, HPLC and mass spectrometry [4] | peptide cleavage, HPLC and mass spectrometry [5] | peptide cleavage, HPLC and mass spectrometry [6] | peptide cleavage, HPLC and mass spectrometry [7] | peptide cleavage, HPLC and mass spectrometry [8] | peptide cleavage, HPLC and mass spectrometry [9] | peptide cleavage, HPLC and mass spectrometry [10] | peptide cleavage, HPLC and mass spectrometry [11]
1 | mammalian Tolloid-like-1 (mTLL-1) (protein) AATSRTERIWPGGVIPYVIGGNFTGSQRAMFKQAMRHWEKHTCVTFIERSDEESYIVFTYRPCGCCSYVGRRGNGPQAISIGKNCDKFGIVVHELGHVIGFWHEHTRPDRDNHVTIIRENIQPGQEYNFLKMEPGEVNSLGERYDFDSIMHYARNTFSRGMFLDTILPSRDDNGIRPAIGQRTRLSKGDIAQARKLYRCPACGETLQESNGNLSSPGFPNGYPSYTHCIWRVSVTPGEKIVLNFTTMDLYKSSLCWYDYIEVRDGYWRKSPLLGRFCGDKLPEVLTSTDSRMWIEFRSSSNWVGKGFAAVYEAICGGEIRKNEGQIQSPNYPDDYRPMKECVWKITVSESYHVGLTFQSFEIERHDNCAYDYLEVRDGTSENSPLIGRFCGYDKPEDIRSTSNTLWMKFVSDGTVNKAGFAANFFKEEDECAKPDRGGCEQRCLNTLGSYQCACEPGYELGPDRRSCEAACGGLLTKLNGTITTPGWPKEYPPNKNCVWQVVAPTQYRISVKFEFFELEGNEVCKYDYVEIWSGLSSESKLHGKFCGAEVPEVITSQFNNMRIEFKSDNTVSKKGFKAHFFSDKDECSKDNGGCQHECVNTMGSYMCQCRNGFVLHDNKHDCKEAECEQKIHSPSGLITSPNWPDKYPSRKECTWEISATPGHRIKLAFSEFEIEQHQECAYDHLEVFDGETEKSPILGRLCGNKIPDPLVATGNKMFVRFVSDASVQRKGFQATHSTECGGRLKAESKPRDLYSHAQFGDNNYPGQVDCEWLLVSERGSRLELSFQTFEVEEEADCGYDYVELFDGLDSTAVGLGRFCGSGPPEEIYSIGDSVLIHFHTDDTINKKGFHIRYKSIRYPDTTHTKK | completely resistant to proteolysis by each of the four proteinases | BMP-1, mTLL-1, and mTLL-2, were approximately equally effective in cleaving the pro peptide | All four of these proteinases also cleaved pro peptide that had been purified away from the C-terminal dimer | A discrete proteolytic cleavage product of the pro peptide was detected in each reaction containing one of the four proteases |  |  |  |  |  |  |  |  |  | 
2 | bone morphogenic protein-1 (BMP-1) (protein) AATSRPERVWPDGVIPFVIGGNFTGSQRAVFRQAMRHWEKHTCVTFLERTDEDSYIVFTYRPCGCCSYVGRRGGGPQAISIGKNCDKFGIVVHELGHVVGFWHEHTRPDRDRHVSIVRENIQPGQEYNFLKMEPQEVESLGETYDFDSIMHYARNTFSRGIFLDTIVPKYEVNGVKPPIGQRTRLSKGDIAQARKLYKCPACGETLQDSTGNFSSPEYPNGYSAHMHCVWRISVTPGEKIILNFTSLDLYRSRLCWYDYVEVRDGFWRKAPLRGRFCGSKLPEPIVSTDSRLWVEFRSSSNWVGKGFFAVYEAICGGDVKKDYGHIQSPNYPDDYRPSKVCIWRIQVSEGFHVGLTFQSFEIERHDSCAYDYLEVRDGHSESSTLIGRYCGYEKPDDIKSTSSRLWLKFVSDGSINKAGFAVNFFKEVDECSRPNRGGCEQRCLNTLGSYKCSCDPGYELAPDKRRCEAACGGFLTKLNGSITSPGWPKEYPPNKNCIWQLVAPTQYRISLQFDFFETEGNDVCKYDFVEVRSGLTADSKLHGKFCGSEKPEVITSQYNNMRVEFKSDNTVSKKGFKAHFFSEKRPALQPPRGRPHQLKFRVQKRNRTPQ | completely resistant to proteolysis by each of the four proteinases | BMP-1, mTLL-1, and mTLL-2, were approximately equally effective in cleaving the pro peptide | All four of these proteinases also cleaved pro peptide that had been purified away from the C-terminal dimer | A discrete proteolytic cleavage product of the pro peptide was detected in each reaction containing one of the four proteases | incubation of the purified latent complex with purified BMP-1 resulted in complete cleavage of the pro peptide to generate a single product |  |  |  |  |  |  |  |  | 
3 | mammalian Tolloid-like-2 (mTLL-2) (protein) ATTSRTERIWPGGVIPYVIGGNFTGSQRAIFKQAMRHWEKHTCVTFIERTDEESFIVFSYRTCGCCSYVGRRGGGPQAISIGKNCDKFGIVAHELGHVVGFWHEHTRPDRDQHVTIIRENIQPGQEYNFLKMEAGEVSSLGETYDFDSIMHYARNTFSRGVFLDTILPRQDDNGVRPTIGQRVRLSQGDIAQARKLYKCPACGETLQDTTGNFSAPGFPNGYPSYSHCVWRISVTPGEKIVLNFTSMDLFKSRLCWYDYVEVRDGYWRKAPLLGRFCGDKIPEPLVSTDSRLWVEFRSSSNILGKGFFAAYEATCGGDMNKDAGQIQSPNYPDDYRPSKECVWRITVSEGFHVGLTFQAFEIERHDSCAYDYLEVRDGPTEESALIGHFCGYEKPEDVKSSSNRLWMKFVSDGSINKAGFAANFFKEVDECSWPDHGGCEHRCVNTLGSYKCACDPGYELAADKKMCEVACGGFITKLNGTITSPGWPKEYPTNKNCVWQVVAPAQYRISLQFEVFELEGNDVCKYDFVEVRSGLSPDAKLHGRFCGSETPEVITSQSNNMRVEFKSDNTVSKRGFRAHFFSDKDECAKDNGGCQHECVNTFGSYLCRCRNGYWLHENGHDCKEAGCAHKISSVEGTLASPNWPDKYPSRRECTWNISSTAGHRVKLTFNEFEIEQHQECAYDHLEMYDGPDSLAPILGRFCGSKKPDPTVASGSSMFLRFYSDASVQRKGFQAVHSTECGGRLKAEVQTKELYSHAQFGDNNYPSEARCDWVIVAEDGYGVELTFRTFEVEEEADCGYDYMEAYDGYDSSAPRLGRFCGSGPLEEIYSAGDSLMIRFRTDDTINKKGFHARYTSTKFQDALHMKK | completely resistant to proteolysis by each of the four proteinases | BMP-1, mTLL-1, and mTLL-2, were approximately equally effective in cleaving the pro peptide | All four of these proteinases also cleaved pro peptide that had been purified away from the C-terminal dimer | A discrete proteolytic cleavage product of the pro peptide was detected in each reaction containing one of the four proteases |  | The 40-mer, 30-mer, and 20-mer wild type and R→Q mutant peptides were cleaved by conditioned media containing TLL-2 | The 40-mer, 30-mer, and 20-mer wild type and R→Q mutant peptides were cleaved by conditioned media containing TLL-2 | The 40-mer, 30-mer, and 20-mer wild type and R→Q mutant peptides were cleaved by conditioned media containing TLL-2 | The 40-mer, 30-mer, and 20-mer wild type and R→Q mutant peptides were cleaved by conditioned media containing TLL-2 | The 40-mer, 30-mer, and 20-mer wild type and R→Q mutant peptides were cleaved by conditioned media containing TLL-2 | the peptides containing the D→A mutation at the P1′ position were not cleaved | the peptides containing the D→A mutation at the P1′ position were not cleaved | the peptides containing the D→A mutation at the P1′ position were not cleaved | The 40-mer, 30-mer, and 20-mer wild type and R→Q mutant peptides were cleaved by conditioned media containing TLL-2
